{"source": "patent US20210087231A1", "about": "(UNIVERSITY OF MARYLAND BALTIMORE, published 2021)", "key": {"[1]": {"molecular_target": "T1, TRAM-Cer (UniProt Q86XR7 1-235)", "T1 construct": "Control construct expressed in HeLa cells; not shown: Cerulean fluorescent protein (Cer)", "T1 sequence (Q86XR7 whole entry, the tested form may be a part)": "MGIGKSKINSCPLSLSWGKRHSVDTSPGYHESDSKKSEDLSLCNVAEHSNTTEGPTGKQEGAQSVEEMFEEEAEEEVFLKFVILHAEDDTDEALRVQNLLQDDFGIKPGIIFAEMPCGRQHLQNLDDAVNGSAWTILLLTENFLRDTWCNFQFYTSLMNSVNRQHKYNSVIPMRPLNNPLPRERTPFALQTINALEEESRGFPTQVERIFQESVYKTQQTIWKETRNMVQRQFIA", "test": "FRET-FLIM in HeLa cells expressing the Cer fusion, Cy3-peptide 1 h", "description": "(§1) To identify potential binding partners of inhibitory peptides a FRET approach coupled with Fluorescence Lifetime Imaging Microscopy (FLIM) was used. HeLa cells were transiently transfected with an expression vector that encodes a TIR domain fused with Cerulean fluorescent protein (Cer). Cells were treated with various concentrations of a Cy3-labeled inhibitory peptide 48 hours after transfection. Cy3 is a suitable FRET acceptor for Cer fluorescence. A direct molecular interaction of a Cy3-labeled peptide with Cer-fused TIR domain should quench Cer fluorescence, leading to a decreased fluorescence lifetime.\n(§2) A progressive shift of average fluorescence lifetime towards lower values observed with increasing peptide concentrations indicates the binding between donor and acceptor moieties. […] FRET efficiencies presented in FIG. 13 were calculated from the average lifetimes corresponding to entire images that contained multiple cells as in images shown in FIG. 11, using data obtained in three independent experiments. […]\n(§3) The strongest peptide-induced quenching was detected for the TLR9 TIR-Cer-expressing cells treated with Cy3-9R34-ΔN. This peptide quenched the TLR9 TIR-Cer fluorescence dose-dependently with FRET efficiency varying in the range of 9-23% (FIG. 13). […]"}, "[2]": {"molecular_target": "T2, MyD88-Cer (UniProt Q99836 155-296)", "T2 construct": "The vector is 'described previously'; Expressed in HeLa cells; also called MyD88 TIR-Cer; Cer-labeled MyD88 TIR; not shown: Cerulean fluorescent protein (Cer)", "T2 sequence (Q99836 155-296)": "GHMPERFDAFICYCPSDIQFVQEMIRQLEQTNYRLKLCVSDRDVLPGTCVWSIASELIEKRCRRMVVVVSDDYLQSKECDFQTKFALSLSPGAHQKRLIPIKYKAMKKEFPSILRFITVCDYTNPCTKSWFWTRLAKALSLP", "test": "FRET-FLIM in HeLa cells expressing the Cer fusion, Cy3-peptide 1 h", "description": "as §1, §2, §3"}}, "note": "No end group written: not given here. Cy3 = Cy3 fluorescent dye label", "data": [{"binder": "Cy3-RQIKIWFQNRRMKWKKALRLCLEERD (Cy3-labeled cell-permeating decoy peptide (CPDP); also called 9R34-ΔNa; peptide from Surface 1 (S1) of TLR9)", "note": "[Cy3-9R34-ΔN]", "values": [{"measurement": "binding result", "setting": "[1]", "value": "no binding (tested: 40 µM)"}, {"measurement": "binding result", "setting": "[2]", "value": "no binding (tested: 2.5 and 10 µM)"}]}]}
